The text below walks through data of patent publication US20260115256A1 (HANGZHOU SCIWIND BIOSCIENCES, published 2026).

*1 amine or outer side, *2 acyl side, *3 side chain or, on linkers, in order; H or OH if unused. Bridges are numbered along the chain shown (N, C = ends). [ ]: non-standard residue; d: D form. The star is where a group is joined. C20 diacid = O=C(O)CCCCCCCCCCCCCCCCCCC(=O)*; C18 diacid = O=C(O)CCCCCCCCCCCCCCCCC(=O)*; γGlu = O=C(O)[C@H](CCC(=O)[*:2])N[*:1]; Hyp = O=C(O)[C@@H]1C[C@@H](O)CN1; AEEA = NCCOCCOCC(=O)O

The test concerns the target T1, human amylin receptor (AMY3) on CHO-K1/Ga15/AMY3 cells (human, UniProt P30988 25-474; O60896 24-148).
T1 sequence (looked up) 1: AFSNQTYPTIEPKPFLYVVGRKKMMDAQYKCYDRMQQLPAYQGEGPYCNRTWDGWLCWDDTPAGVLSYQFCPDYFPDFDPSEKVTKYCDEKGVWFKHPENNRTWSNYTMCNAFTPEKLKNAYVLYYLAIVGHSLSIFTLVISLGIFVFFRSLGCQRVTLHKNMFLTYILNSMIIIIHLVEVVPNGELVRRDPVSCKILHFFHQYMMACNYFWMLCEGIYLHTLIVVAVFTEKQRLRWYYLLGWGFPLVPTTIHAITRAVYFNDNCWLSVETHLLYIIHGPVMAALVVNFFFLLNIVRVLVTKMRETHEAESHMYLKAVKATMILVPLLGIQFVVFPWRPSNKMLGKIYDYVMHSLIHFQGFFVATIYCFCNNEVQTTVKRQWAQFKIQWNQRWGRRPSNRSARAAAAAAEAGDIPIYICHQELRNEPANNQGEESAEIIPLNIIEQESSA
T1 sequence (looked up) 2: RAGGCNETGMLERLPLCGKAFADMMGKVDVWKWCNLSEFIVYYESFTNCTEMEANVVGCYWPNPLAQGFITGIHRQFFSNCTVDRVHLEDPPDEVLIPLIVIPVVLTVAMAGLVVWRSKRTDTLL
Put plainly: cell-based or functional assay.

B1: PD159 (peptide)
peptide: {C20 diacid-γGlu}-KCNTATCATQRLADFLRHSSNNLHPILPPTNVGSNT[Hyp]-NH2
modifications: disulfide 2-7 (inferred)
As to B1, the “EC50, CRE-luciferase assay” value was 37 pM.

B2: PD124 (peptide)
peptide: {C18 diacid-γGlu}-KCNTATCATQRLADFLRHSSNNLGPILPPTNVGSNT[Hyp]-NH2
modifications: disulfide 2-7 (inferred); not fully specified; printed as KCNTATCATQRLADFLRHSSNNLGPILPPTNVGSNT-trans-Hyp-NH2
As for B2, the “EC50, CRE-luciferase assay” value was 8 pM.

B3: PD126 (peptide)
peptide: {C18 diacid-γGlu-AEEA-AEEA}-KCNTATCATQRLADFLRHSSNNLGPILPPTNVGSNT[Hyp]-NH2
modifications: disulfide 2-7 (inferred)
Consider B3, for which the “EC50, CRE-luciferase assay” value turned out to be 28 pM.

B4: PD156 (peptide)
peptide: {C20 diacid-γGlu}-KCNTATCATQRLANFLVHSSNNFGPILPPTNVGSNTY-NH2
modifications: ends and bridges not checked
In the case of B4, the “EC50, CRE-luciferase assay” value turned out to be 29 pM.

B5: PD125 (peptide)
peptide: {C18 diacid-γGlu-AEEA}-KCNTATCATQRLADFLRHSSNNLGPILPPTNVGSNT[Hyp]-NH2
modifications: disulfide 2-7 (inferred)
Turning to B5, the “EC50, CRE-luciferase assay” value amounted to 10 pM.

B6: PD158 (peptide)
peptide: {C20 diacid-γGlu}-KCNTATCATQRLADFLRHSSNNLRPILPPTNVGSNT[Hyp]-NH2
modifications: disulfide 2-7 (inferred)
As for B6, the “EC50, CRE-luciferase assay” value was found to be 22 pM.
